From IntAct's records for PubMed 35512704

B1: Speckle-type POZ protein (Homo sapiens), O43791 (parent)
chain: MSRVPSPPPPAEMSSGPVAESWCYTQIKVVKFSYMWTINNFSFCREEMGEVIKSSTFSSGANDKLKWCLRVNPKGLDEESKDYLSLYLLLVSCPKSEVRAKFKFSILNAKGEETKAMESQRAYRFVQGKDWGFKKFIRRDFLLDEANGLLPDDKLTLFCEVSVVQDSVNISGQNTMNMVKVPECRLADELGGLWENSRFTDCCLCVAGQEFQAHKAILAARSPVFSAMFEHEMEESKKNRVEINDVEPEVFKEMMCFIYTGKAPNLDKMADDLLAAADKYALERLKVMCEDALCSNLSVENAAEILILADLHSADQLKTQAVDFINYHASDVLETSGWKSMVVSHPHLVAEAYRSLASAQCPFLGPPRKRLKQS

Variants of: B1
Conditions: with lims1_human LIMS1, P48059
Chain of lims1_human LIMS1, P48059 (P48059 whole entry): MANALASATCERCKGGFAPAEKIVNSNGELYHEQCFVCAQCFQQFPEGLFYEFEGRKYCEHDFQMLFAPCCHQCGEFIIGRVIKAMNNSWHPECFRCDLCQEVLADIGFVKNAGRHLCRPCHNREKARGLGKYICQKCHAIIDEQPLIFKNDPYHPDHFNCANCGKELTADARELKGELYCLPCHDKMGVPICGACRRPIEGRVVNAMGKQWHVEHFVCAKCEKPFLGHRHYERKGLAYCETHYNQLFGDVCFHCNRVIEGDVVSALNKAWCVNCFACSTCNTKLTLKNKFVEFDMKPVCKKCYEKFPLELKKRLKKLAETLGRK

Row | effect of a mutation on the interaction | Variant
1 | with no effect | F133L

Variants of: B1
Conditions: with maga6_human MAGEA6, P43360

Row | effect of a mutation on the interaction | Variant
2 | with no effect | F133L

Variants of: B1
Conditions: with m3k1_human MAP3K1, Q13233
Chain of m3k1_human MAP3K1, Q13233 (Q13233 whole entry): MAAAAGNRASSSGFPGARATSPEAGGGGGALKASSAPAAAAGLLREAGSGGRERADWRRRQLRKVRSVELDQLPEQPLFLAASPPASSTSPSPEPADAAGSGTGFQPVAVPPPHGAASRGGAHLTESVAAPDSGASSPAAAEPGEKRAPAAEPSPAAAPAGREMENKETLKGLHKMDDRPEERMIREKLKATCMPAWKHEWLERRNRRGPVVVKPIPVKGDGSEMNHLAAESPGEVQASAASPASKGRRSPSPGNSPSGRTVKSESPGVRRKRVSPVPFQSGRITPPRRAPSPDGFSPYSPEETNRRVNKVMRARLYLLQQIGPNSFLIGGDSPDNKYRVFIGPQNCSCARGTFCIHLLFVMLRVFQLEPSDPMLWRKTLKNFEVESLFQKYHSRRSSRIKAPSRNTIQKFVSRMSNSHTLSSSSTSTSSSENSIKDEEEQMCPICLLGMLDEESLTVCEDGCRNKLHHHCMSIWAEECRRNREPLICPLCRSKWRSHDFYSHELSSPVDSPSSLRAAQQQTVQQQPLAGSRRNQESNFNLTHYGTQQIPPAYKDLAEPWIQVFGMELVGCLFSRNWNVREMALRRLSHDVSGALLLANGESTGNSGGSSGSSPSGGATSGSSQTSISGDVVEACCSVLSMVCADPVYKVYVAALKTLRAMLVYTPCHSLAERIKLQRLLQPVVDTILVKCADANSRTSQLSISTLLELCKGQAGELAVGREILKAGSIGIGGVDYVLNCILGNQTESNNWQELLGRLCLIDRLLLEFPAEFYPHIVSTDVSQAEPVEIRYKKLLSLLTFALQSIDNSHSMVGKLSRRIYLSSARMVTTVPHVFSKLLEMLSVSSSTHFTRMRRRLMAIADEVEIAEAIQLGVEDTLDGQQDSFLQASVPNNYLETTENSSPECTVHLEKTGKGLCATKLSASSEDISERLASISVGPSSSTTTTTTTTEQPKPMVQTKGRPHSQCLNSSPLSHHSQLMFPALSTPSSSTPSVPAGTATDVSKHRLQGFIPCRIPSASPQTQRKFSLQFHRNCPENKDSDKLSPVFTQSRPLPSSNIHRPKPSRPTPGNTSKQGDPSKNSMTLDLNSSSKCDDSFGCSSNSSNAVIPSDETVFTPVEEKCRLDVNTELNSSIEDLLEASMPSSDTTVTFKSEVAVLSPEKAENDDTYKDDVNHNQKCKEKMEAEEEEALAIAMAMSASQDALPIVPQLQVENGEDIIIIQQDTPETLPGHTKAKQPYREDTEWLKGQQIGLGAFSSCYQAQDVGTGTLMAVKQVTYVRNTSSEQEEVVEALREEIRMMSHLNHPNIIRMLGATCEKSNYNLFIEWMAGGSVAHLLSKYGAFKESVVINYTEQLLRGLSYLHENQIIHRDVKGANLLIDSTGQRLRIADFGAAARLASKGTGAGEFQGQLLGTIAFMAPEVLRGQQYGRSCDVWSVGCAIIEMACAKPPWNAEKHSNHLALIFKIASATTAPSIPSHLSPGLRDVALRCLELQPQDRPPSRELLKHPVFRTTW

Row | effect of a mutation on the interaction | Variant
3 | with no effect | F133L

Variants of: B1
Conditions: with mk10_human MAPK10, P53779
Chain of mk10_human MAPK10, P53779 (P53779 whole entry): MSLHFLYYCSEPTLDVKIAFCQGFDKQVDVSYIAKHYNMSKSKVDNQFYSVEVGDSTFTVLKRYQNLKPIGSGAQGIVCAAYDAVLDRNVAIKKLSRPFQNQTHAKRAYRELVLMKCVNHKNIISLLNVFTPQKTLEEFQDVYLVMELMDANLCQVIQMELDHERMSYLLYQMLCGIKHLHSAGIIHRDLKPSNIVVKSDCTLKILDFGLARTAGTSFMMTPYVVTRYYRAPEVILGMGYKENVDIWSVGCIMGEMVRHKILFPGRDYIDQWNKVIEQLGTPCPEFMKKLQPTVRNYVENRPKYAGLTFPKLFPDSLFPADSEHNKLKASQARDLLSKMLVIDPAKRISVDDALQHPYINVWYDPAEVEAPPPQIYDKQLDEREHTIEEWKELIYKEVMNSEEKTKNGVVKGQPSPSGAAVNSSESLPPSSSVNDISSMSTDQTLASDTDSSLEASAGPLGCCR

Row | effect of a mutation on the interaction | Variant
4 | with no effect | F133L

Variants of: B1
Conditions: with mk14_human MAPK14, Q16539
Chain of mk14_human MAPK14, Q16539 (Q16539 whole entry): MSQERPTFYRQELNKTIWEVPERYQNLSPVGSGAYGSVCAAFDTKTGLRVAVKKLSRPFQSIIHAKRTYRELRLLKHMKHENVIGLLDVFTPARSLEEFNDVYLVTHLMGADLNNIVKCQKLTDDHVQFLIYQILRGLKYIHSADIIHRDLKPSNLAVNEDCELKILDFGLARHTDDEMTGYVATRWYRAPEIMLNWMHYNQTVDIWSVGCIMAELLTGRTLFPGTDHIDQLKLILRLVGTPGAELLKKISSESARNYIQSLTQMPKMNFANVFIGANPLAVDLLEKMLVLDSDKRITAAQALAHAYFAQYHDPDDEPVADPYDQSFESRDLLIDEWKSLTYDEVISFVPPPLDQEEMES

Row | effect of a mutation on the interaction | Variant
5 | with no effect | F133L

Variants of: B1
Conditions: with mk03_human MAPK3, P27361

Row | effect of a mutation on the interaction | Variant
6 | with no effect | F133L

Variants of: B1
Conditions: with mk04_human MAPK4, P31152

Row | effect of a mutation on the interaction | Variant
7 | with no effect | F133L

Variants of: B1
Conditions: with mk06_human MAPK6, Q16659
Chain of mk06_human MAPK6, Q16659 (Q16659 whole entry): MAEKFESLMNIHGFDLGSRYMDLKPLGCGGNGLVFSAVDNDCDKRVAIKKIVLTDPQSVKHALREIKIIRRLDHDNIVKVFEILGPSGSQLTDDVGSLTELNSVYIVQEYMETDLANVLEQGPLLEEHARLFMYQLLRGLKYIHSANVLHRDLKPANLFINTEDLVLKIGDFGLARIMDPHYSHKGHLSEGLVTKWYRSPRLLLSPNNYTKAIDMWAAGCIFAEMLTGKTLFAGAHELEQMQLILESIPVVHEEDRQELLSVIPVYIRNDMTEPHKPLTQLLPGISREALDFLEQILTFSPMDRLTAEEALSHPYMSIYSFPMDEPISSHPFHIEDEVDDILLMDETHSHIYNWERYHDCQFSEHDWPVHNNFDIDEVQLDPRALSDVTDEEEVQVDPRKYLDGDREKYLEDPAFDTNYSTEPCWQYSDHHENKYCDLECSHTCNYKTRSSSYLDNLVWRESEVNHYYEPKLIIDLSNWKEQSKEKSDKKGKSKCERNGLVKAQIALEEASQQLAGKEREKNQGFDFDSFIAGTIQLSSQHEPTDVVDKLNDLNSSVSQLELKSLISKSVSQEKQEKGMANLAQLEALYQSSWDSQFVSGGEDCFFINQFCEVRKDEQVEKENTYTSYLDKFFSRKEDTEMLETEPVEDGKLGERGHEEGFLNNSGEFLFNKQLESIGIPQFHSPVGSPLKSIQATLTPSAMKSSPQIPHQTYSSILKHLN

Row | effect of a mutation on the interaction | Variant
8 | with no effect | F133L

Variants of: B1
Conditions: with mk07_human MAPK7, Q13164
Chain of mk07_human MAPK7, Q13164 (Q13164 whole entry, looked up): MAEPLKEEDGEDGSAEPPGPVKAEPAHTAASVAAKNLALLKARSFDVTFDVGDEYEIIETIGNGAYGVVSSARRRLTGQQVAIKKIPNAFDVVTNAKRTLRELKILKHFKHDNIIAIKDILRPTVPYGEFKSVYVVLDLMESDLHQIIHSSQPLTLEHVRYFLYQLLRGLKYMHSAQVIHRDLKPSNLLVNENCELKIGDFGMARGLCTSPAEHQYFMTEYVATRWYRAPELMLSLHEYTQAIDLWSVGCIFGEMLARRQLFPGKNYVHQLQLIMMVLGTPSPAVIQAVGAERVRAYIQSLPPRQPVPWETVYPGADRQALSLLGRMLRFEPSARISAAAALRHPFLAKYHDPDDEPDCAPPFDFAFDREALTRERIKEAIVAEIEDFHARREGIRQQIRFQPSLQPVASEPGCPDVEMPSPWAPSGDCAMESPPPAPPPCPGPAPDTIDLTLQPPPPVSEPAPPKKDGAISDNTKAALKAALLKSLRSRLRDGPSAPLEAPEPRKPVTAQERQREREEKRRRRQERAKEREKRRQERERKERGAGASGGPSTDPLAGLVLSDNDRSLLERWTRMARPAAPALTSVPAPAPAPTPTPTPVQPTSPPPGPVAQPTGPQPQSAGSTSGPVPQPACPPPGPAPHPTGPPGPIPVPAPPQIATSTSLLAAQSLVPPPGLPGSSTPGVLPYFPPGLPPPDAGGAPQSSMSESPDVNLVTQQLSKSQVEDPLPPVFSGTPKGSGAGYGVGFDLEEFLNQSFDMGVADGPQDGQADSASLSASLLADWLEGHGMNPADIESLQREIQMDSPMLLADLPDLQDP

Row | effect of a mutation on the interaction | Variant
9 | with no effect | F133L

Variants of: B1
Conditions: with sin1_human MAPKAP1, Q9BPZ7

Row | effect of a mutation on the interaction | Variant
10 | with no effect | F133L

Variants of: B1
Conditions: with mcl1_human MCL1, Q07820
Chain of mcl1_human MCL1, Q07820 (Q07820 whole entry): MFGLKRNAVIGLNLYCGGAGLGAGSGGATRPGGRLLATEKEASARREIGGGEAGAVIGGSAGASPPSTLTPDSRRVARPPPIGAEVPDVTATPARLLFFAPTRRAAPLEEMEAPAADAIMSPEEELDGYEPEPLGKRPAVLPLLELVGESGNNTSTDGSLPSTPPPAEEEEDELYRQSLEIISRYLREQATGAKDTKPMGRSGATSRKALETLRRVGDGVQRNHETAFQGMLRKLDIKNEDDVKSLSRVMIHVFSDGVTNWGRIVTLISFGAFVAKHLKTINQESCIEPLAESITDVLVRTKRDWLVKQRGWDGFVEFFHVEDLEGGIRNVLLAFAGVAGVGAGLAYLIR

Row | effect of a mutation on the interaction | Variant
11 | with no effect | F133L

Variants of: B1
Conditions: with mdm2_human MDM2, Q00987
Chain of mdm2_human MDM2, Q00987 (Q00987 whole entry, looked up): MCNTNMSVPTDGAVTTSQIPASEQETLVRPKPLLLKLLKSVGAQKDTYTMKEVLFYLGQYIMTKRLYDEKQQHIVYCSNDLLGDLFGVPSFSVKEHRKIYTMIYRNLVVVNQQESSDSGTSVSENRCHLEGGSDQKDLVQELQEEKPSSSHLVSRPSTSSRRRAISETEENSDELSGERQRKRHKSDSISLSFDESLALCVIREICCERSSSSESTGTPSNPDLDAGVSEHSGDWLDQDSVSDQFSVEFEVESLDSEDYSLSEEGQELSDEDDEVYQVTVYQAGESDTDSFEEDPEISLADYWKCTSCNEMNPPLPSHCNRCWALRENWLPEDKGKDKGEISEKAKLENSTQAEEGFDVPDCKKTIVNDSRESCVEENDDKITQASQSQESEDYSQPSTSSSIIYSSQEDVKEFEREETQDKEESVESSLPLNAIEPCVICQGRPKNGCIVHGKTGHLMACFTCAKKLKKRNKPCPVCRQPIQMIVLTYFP

Row | effect of a mutation on the interaction | Variant
12 | with no effect | F133L

Variants of: B1
Conditions: with mef2a_human MEF2A

Row | effect of a mutation on the interaction | Variant
13 | with no effect | F133L

Variants of: B1
Conditions: with mlh1_human MLH1, P40692

Row | effect of a mutation on the interaction | Variant
14 | with no effect | F133L

Variants of: B1
Conditions: with mtor_human MTOR

Row | effect of a mutation on the interaction | Variant
15 | with no effect | F133L
